From article doi:10.1101/2024.09.11.612445 (bioRxiv, 2024)

Experiments:
recombinant CSTF3 21-549 [1] = biological target: T1, recombinant CSTF3 21-549 (human, UniProt Q12996 21-549); assay: pull-down
T1 sequence (looked up): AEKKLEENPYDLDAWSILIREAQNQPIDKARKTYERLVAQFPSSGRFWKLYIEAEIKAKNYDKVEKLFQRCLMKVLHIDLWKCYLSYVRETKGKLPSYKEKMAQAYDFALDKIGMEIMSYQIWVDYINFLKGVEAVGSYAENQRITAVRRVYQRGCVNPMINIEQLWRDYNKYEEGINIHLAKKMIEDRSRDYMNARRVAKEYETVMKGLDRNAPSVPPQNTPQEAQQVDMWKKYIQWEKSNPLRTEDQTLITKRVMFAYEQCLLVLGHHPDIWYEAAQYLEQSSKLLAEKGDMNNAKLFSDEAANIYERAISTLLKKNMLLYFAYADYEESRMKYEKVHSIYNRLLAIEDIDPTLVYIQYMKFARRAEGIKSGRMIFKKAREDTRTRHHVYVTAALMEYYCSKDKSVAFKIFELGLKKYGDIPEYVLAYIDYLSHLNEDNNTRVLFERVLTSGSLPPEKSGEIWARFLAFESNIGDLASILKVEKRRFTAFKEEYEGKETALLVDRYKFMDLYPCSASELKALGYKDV

recombinant CSTF3 21-549 [2] = biological target: T1, recombinant CSTF3 21-549; assay: ITC

Binder	binding result (recombinant CSTF3 21-549 [1])	binding result (recombinant CSTF3 21-549 [2])
GST-WDR33 431-485 wild-type (domain or fragment, human, UniProt Q9C0J8 431-485, looked up) DDLEPNSLAVIPGMGIPEQLKLAMEQEQMGKDESNEIEMTIPGLDWGMEEVMQKD	binds	
SPTVDDEEEMLYGDS (peptide, UniProt Q10570 737-751, looked up) [CPSF1 737-751 wild-type peptide]		binds
